Laboratory results: patent US20230084102A1 (HUMABS BIOMED, published 2023)
Read-outs that look alike come from different tables or passages of the source. Where no end group is shown, it is not given here. The star is where a group is joined. Biotin = O=C1N[C@H]2[C@H](CS[C@H]2CCCCC(=O)*)N1

Assays:
[1] = target: T1, biotinylated NANP-peptide (Plasmodium falciparum); assay: ELISA, biotinylated peptide on avidin-coated plates, titrated IgG
T1 construct: also called NANP-repeat region of CSP
T1 peptide: Biotin-NANPNANPNANPNANPNA
Experimental: (§1) To test specific antibody binding to (i) the NANP-repeat region of CSP and (ii) the N-terminal region of CSP covering the junction between the N-terminal domain and the NANP-repeats, ELISA plates were coated with 10 μg/ml of avidin (Sigma). […] The plates were washed and incubated with titrated monoclonal antibodies, followed by 1/500 AP-conjugated goat anti-human IgG (Southern Biotech) and pNPP substrate. EC50 (ng/ml) values were calculated for every sample tested by nonlinear regression analysis using the Graph Pad Prism 7 software.

[2] = target: T2, biotinylated NPDP-peptide (Plasmodium falciparum, also: biotinylated); assay: as above
T2 peptide: KQPADGNPDPNANPN
Experimental: as §1

[3] = target: T1, biotinylated NANP-peptide; assay: as above
Experimental: as §1

[4] = target: T2, biotinylated NPDP-peptide; assay: as above
Experimental: as §1

[5] = target: T3, biotinylated NPDP19-peptide (Plasmodium falciparum); assay: ELISA, biotinylated peptide on streptavidin-coated plates
T3 peptide: Biotin-KQPADGNPDPNANPNVDPN

[6] = target: T1, biotinylated NANP-peptide; assay: as above

B1: MGH2 (antibody, V domains shown)
VH: QVQLVESGGGVVQPGGSLRLSCTASGFSFSSYAMHWVRQAPGKGLEWVAYTRYDGSNKFYLDSVQGRFTISRDNSKNTLYLEMDSLRLEDTAVYFCAKVGDGTVAGTIDYWGQGTLVTVSS
VL: YIVMTQSPLSLPVTLGQPASISCRSSQSLVYSDGNTYLNWYQQRPGQSPRRLIYKVSNRDSGVPDRFSGSGSGTDFTLKISRVEAEDVGVYYCMQGTHWWTFGQGTKVEIK
notes: also called parental antibody MGH2
EC50 [1]: 0.0279 µg/mL | EC50 [2]: 0.0488 µg/mL

B2: MGH2variant1 (antibody, V domains shown)
VH: QVQLVESGGGVVQPGGSLRLSCTASGFSFSSYAMHWVRQAPGKGLEWVAYTRYDGSNKFYLDSVQGRFTISRDNSKNTLYLEMDSLRLEDTAVYFCAKVGDGTVAGTIDYWGQGTLVTVSS
VL: YIVMTQSPLSLPVTLGQPASISCRSSQSLVYSDGNTYLNWYQQRPGQSPRRLIYKVSNRDSGVPDRFSGSGSGTDFTLKISRVEAEDVGVYYCMQGTHFWTFGQGTKVEIK
notes: Expressed as IgG1; also called MGH2v1
EC50 [1]: 0.0223 µg/mL | EC50 [2]: 0.0658 µg/mL

B3: MGU10 (antibody, V domains shown)
VH: QVQLVESGGGVVQPGRSLRLSCAASGFAFSNYGMNWVRQAPGKGLEWVAVIWHDGSLKYYTQSVKGRFTISRDNAKNTLFLQMDSLSADDTAMYYCTVWYLETPDDGFDIWGRGTMVTVSS
VL: QLVLTQPPSASASLGVSVTLTCTLSHGHTSKAIAWHQQQPGKGPRYLMKVNSDGSHTKGAAVPDRFSGSTSGAERHFTISNLQSDDEADYYCQAWDSGIWVFGGGTKLTVL
notes: also called parental antibody MGU10
EC50 [3]: 0.0343 µg/mL | EC50 [4]: 0.0261 µg/mL

B4: MGU10variant8 (antibody, V domains shown)
VH: QVQLVESGGGVVQPGRSLRLSCAASGFAFSNYGMNWVRQAPGKGLEWVAVIWHDGSLKYYTQSVKGRFTISRDNAKNTLFLQMDSLSAEDTAMYYCTVWYLETPDEGFDIWGRGTMVTVSS
VL: QLVLTQPPSASASLGVSVTLTCTLSHGHTSKAIAWHQQQPGKGPRYLMKVNSDGSHTKGAAVPDRFSGSTSGAERHFTISNLQSDDEADYYCQAWDSGIWVFGGGTKLTVL
notes: also called MGU10v8
binding result [5]: binds | binding result [6]: binds

B5: MGU10variant3 (antibody, V domains shown)
VH: QVQLVESGGGVVQPGRSLRLSCAASGFAFSNYGMNWVRQAPGKGLEWVAVIWHDGSLKYYTQSVKGRFTISRDNAKNTLFLQMDSLSADDTAMYYCTVWYLETPDDGFDIWGRGTMVTVSS
VL: QLVLTQPPSASASLGVSVTLTCTLSHGHTSKAIAWHQQQPGKGPRYLMKVNSDGSHTKGAAVPDRFSGSTSGAERHFTISNLQSDDEADYYCQAWESGIWVFGGGTKLTVL
notes: Expressed as IgG1; also called MGU10v3
EC50 [3]: 0.0263 µg/mL | EC50 [4]: 0.0251 µg/mL

B6: MGU10variant1 (antibody, V domains shown)
VH: QVQLVESGGGVVQPGRSLRLSCAASGFAFSNYGMHWVRQAPGKGLEWVAVIWHDGSLKYYTQSVKGRFTISRDNAKNTLFLQMDSLSADDTAMYYCTVWYLETPDDGFDIWGQGTMVTVSS
VL: QLVLTQPPSASASLGVSVTLTCTLSHGHTSKAIAWHQQQPGKGPRYLMKVNSDGSHTKGAAVPDRFSGSTSGAERHFTISNLQSDDEADYYCQAWDSGIWVFGGGTKLTVL
notes: Expressed as IgG1 in Expi293F cells and tested as quantified culture supernatant; also called MGU10v1
EC50 [3]: 0.0285 µg/mL | EC50 [4]: 0.0225 µg/mL

B7: MGU10variant2 (antibody, V domains shown)
VH: QVQLVESGGGVVQPGRSLRLSCAASGFAFSNYGMNWVRQAPGKGLEWVAVIWHDGSLKYYTQSVKGRFTISRDNAKNTLFLQMDSLSADDTAMYYCTVWYLETPDEGFDIWGRGTMVTVSS
VL: QLVLTQPPSASASLGVSVTLTCTLSHGHTSKAIAWHQQQPGKGPRYLMKVNSDGSHTKGAAVPDRFSGSTSGAERHFTISNLQSDDEADYYCQAWDSGIWVFGGGTKLTVL
notes: Expressed as IgG1; also called MGU10v2
binding result [5]: binds | EC50 [3]: 0.0268 µg/mL | EC50 [4]: 0.0204 µg/mL
